Test results published in patent US20170355757A1 (Regeneron, published 2017).

T1: monkey C5-mmh (monkey, UniProt P01031 19-1676 (human entry), limits assumed)
T1 construct: Expressed with a C-terminal myc-myc-hexahistidine tag
T1 chain: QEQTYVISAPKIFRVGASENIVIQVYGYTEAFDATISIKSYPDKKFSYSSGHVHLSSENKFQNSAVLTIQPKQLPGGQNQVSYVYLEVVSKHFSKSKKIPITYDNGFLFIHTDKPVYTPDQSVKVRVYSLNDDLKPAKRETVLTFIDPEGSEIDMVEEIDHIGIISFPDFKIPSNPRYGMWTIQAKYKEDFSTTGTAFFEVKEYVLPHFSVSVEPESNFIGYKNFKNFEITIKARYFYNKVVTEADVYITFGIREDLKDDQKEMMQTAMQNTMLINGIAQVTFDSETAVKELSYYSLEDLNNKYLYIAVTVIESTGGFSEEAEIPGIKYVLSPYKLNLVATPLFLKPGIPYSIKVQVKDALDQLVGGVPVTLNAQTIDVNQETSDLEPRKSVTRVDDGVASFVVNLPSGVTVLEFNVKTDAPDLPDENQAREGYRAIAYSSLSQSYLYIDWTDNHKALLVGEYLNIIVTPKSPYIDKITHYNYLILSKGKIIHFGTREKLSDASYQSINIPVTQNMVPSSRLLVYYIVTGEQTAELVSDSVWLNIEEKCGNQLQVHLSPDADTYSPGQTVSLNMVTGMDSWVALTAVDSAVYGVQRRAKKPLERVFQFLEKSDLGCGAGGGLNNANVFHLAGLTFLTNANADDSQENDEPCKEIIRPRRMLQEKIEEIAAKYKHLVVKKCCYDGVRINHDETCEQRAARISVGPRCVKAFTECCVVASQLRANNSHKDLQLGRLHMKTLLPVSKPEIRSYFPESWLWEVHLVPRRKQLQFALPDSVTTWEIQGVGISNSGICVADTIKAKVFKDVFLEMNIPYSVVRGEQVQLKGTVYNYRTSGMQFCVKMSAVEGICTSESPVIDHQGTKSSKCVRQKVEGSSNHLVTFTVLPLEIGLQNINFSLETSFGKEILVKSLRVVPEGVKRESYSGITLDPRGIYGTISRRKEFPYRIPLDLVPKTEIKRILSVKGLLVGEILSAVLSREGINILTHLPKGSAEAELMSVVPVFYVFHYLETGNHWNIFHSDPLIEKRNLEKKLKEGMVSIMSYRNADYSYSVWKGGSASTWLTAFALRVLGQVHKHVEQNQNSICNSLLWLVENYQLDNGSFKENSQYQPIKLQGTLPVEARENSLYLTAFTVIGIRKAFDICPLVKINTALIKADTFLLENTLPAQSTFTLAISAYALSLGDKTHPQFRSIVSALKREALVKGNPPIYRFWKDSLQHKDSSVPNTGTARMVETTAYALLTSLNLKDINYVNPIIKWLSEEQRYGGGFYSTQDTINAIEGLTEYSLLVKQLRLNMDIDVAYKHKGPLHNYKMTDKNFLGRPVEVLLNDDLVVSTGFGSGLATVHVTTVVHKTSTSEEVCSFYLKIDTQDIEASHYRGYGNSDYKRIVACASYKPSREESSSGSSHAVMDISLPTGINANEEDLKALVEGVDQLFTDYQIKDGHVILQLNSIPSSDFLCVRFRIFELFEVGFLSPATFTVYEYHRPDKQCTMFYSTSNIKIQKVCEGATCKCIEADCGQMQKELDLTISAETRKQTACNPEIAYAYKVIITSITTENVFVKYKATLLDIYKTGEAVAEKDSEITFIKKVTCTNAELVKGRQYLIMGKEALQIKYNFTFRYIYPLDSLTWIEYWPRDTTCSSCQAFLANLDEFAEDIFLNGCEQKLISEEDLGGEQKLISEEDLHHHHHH


How the values were obtained:
Human C5 [1] = molecular target: T2, Human C5 (human, UniProt P01031 19-1676); assay: SPR, mAb captured by anti-hFc, 37C
T2 construct: The natural protein has a beta and an alpha chain; also called complement factor 5; complement component 5
How it was run: (§1)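 First, the antibodies were captured through their human Fc on an anti-human Fc surface. Next, C5 reagents were injected for 3 min and dissociation in HBST buffer was recorded for 8 min. Finally, sensorgrams were fitted to a 1:1 model and KD derived as kd/ka.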

monkey C5-mmh = molecular target: T1, monkey C5-mmh; assay: SPR, mAb captured by anti-hFc, 25C
How it was run: as §1

Human C5 [2] = molecular target: T2, Human C5; assay: SPR, mAb captured by anti-hFc, 25C
How it was run: as §1

Row | 100 nM Human C5 Bound (RU) (Human C5 [1]) | Kd (Human C5 [1]) [nM] | koff (Human C5 [1]) [s⁻¹] | kon (Human C5 [1]) [M⁻¹ s⁻¹] | t½ (Human C5 [1]) [min] | 100 nM monkey C5-mmh Bound (RU) (monkey C5-mmh) | Kd (monkey C5-mmh) [nM] | koff (monkey C5-mmh) [s⁻¹] | kon (monkey C5-mmh) [M⁻¹ s⁻¹] | t1/2 (monkey C5-mmh) [min] | 100 nM Human C5 Bound (RU) (Human C5 [2]) | Kd (Human C5 [2]) [nM] | koff (Human C5 [2]) [s⁻¹] | kon (Human C5 [2]) [M⁻¹ s⁻¹] | t½ (Human C5 [2]) [min] | Binder
1 | 58 | 6.27 | 0.000762 | 122000 | 15 | 17 | 4.92 | 0.000226 | 46000 | 51 | 64 | 0.549 | 8.16e-05 | 149000 | 142 | H4H12171P (antibody, human IgG4, V domains shown) VH: EVQLVESGGGVVRPGGSLRLSCAASGFTFDEYGMTWVRQVPGKGLEWVSGITWNGGFTDYTDSVKGRFTSSRDNAKNSLYLQMNSLRAEDTALYYCARDGYSSSWGAYDIWGQGTMVTVSS VL: DIQMTQSPSSLSASVGDRVTITCRASQSISTYLNWYQQKPGKAPKLLIYAASSLQSGVPLRFSGSGSGTDFTLTISSLQPEDFASYFCQQSYSTPYTFGQGTKLEIK
2 | 492 | 0.532 | 0.000241 | 454000 | 48 | 403 | 0.64 | 0.000247 | 386000 | 47 | 439 | 0.123 | 5.14e-05 | 417000 | 225 | H4H11683N (antibody, human IgG4, V domains shown, also called H2M11683N) VH: QVQLVESGGGVVQPGRSLRLSCVASGFTFSSYGIHWVRQAPGKGLEWVAVIWDDGNNINYSDSVKGRFIISRDNSRKTVYLQMNSLRGEDTAVYYCARDAPIAPVPDYWGQGTLVTVSS VL: DIQMTQSPSTLSASVGDRVTITCRASQSISSWLAWYQQKPGKAPKLLIYKASSLDTGVPSRFSGSGSGTEFTLTISSLQPDDFATYYCQQYNTYSYTFGLGTKLEIK
3 | 66 | 0.99 | 0.000115 | 116000 | 101 | 45 | 0.392 | 2.48e-05 | 63300 | 465 | 64 | 0.17 | 4.37e-05 | 258000 | 264 | H4H12161P (antibody, human IgG4, V domains shown) VH: EVQLVESGGDLVQPGGSLRLSCAASGFTFSDHYMDWVRQAPGKGLDWIGRIRNKANAYNTEYAASVRGRFTISRDDSQNLLYLQMNSLKTDDTAVYYCVRVWNYAYFAMDVWGQGTTVTVSS VL: DIQMTQSPSSLSASVGDRVTITCRSSQNIGIFLNWYQQKPGEAPNLLISAASSLHSGVPSRFSGSGSGTDFTLTIGSLQPEDFATYYCQQTYNTIFTFGPGTKVDIK
4 | 98 | 3.1 | 0.00209 | 675000 | 6 | 47 | 21.6 | 0.00499 | 231000 | 2 | 91 | 1.42 | 0.000686 | 484000 | 17 | H4H12166P8 (antibody, human IgG4, V domains shown, human IgG4 Fc with S108P hinge mutation) VH: QVQLQESGPGLVKPSETLSLTCTVSGDSVSSSYWTWIRQPPGKGLEWIGYIYYSGSSNYNPSLKSRATISVDTSKNQFSLKLSSVTAADTAVYYCAREGNVDHTMIFDYWGQGTLVTVSS VL: AIQMTQSPSSLSASVGDRVTITCRASQGIRNDLGWYQQKPGKAPKLLIYAASSLQSGVPSRFAGRGSGTDFTLTISSLQPEDFATYYCHQDFNYPWTFGQGTKVEIK
5 | 82 | 13.8 | 0.00314 | 227000 | 4 | 15 | 64.4 | 0.00616 | 95600 | 2 | 69 | 8.38 | 0.00132 | 157000 | 9 | H4H12166P10 (antibody, human IgG4, V domains shown, human IgG4 Fc with S108P hinge mutation) VH: QVQLQESGPGLVKPSETLSLTCTVSGDSVSSSYWTWIRQPPGKGLEWIGYIYYSGSSNYNPSLKSRATISVDTSKNQFSLKLSSVTAADTAVYYCAREGNVDTTMIHDYWGQGTLVTVSS VL: AIQMTQSPSSLSASVGDRVTITCRASQGIRNDLGWYQQKPGKAPKLLIYAASSLQSGVPSRFAGRGSGTDFTLTISSLQPEDFATYYCLQDFNYPWHFGQGTKVEIK
6 | 122 | 1.7 | 0.000639 | 375000 | 18 | 55 | 18.7 | 0.00318 | 170000 | 4 | 100 | 0.794 | 0.000264 | 332000 | 44 | H4H12166P9 (antibody, human IgG4, V domains shown, human IgG4 Fc with S108P hinge mutation) VH: QVQLQESGPGLVKPSETLSLTCTVSGDSVSSSYWTWIRQPPGKGLEWIGYIYYSGSSNYNPSLKSRATISVDTSKNQFSLKLSSVTAADTAVYYCAREGNVDHTMIFDYWGQGTLVTVSS VL: AIQMTQSPSSLSASVGDRVTITCRASQGIRNDLGWYQQKPGKAPKLLIYAASSLQSGVPSRFAGRGSGTDFTLTISSLQPEDFATYYCLQDFNYPWHFGQGTKVEIK
